In US8889621B2, “Inhibiting binding of FGF23 to the binary FGFR-Klotho complex for the treatment of hypophosphatemia” (New York University, priority 2009, dated 2014):

Molecular target: T1, Klotho ectodomain (Mus musculus, UniProt O35082)
T1 construct: The ectodomain of murine Klotho (A35 to K982) was purified from culture media; FLAG (C); made in house; host or cells: HEK293 (secreted into culture media)
T1 sequence (O35082 35-982): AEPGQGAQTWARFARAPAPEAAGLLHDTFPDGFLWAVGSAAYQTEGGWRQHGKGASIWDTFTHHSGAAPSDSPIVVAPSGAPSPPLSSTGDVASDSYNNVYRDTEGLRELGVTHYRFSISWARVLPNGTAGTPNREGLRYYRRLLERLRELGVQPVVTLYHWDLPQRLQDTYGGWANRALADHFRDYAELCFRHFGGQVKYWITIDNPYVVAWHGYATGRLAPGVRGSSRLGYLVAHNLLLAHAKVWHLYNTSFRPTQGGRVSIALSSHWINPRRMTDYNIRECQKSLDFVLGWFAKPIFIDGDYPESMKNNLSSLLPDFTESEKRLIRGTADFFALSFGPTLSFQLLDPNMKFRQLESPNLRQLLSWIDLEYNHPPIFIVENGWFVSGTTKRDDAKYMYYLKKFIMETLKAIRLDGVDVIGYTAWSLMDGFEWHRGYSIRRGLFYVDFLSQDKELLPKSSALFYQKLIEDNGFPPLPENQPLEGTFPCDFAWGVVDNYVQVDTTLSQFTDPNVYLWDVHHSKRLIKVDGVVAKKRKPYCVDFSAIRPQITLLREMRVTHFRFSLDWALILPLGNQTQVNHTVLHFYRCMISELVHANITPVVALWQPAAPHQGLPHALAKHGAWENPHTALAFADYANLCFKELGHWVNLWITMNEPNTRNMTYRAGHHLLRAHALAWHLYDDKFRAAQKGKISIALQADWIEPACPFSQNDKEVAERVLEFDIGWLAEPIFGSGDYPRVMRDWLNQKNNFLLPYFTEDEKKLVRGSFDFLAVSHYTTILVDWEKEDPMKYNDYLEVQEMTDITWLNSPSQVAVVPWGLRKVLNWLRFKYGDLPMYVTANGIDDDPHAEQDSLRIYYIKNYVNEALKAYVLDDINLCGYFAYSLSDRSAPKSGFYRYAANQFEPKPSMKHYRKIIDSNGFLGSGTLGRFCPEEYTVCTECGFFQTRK
Experiment: SPR: Klotho ectodomain passed over immobilized FGF23
Type: binding, murine
Description: Surface plasmon resonance (SPR) spectroscopy experiments were performed on a Biacore 2000 instrument (Biacore AB), and FGF23-FGFR1c-Klotho interactions were studied at 25° C. in HBS-EP buffer (10 mM HEPES-NaOH, pH 7.4, 150 mM NaCl, 3 mM EDTA, 0.005% (v/v) polysorbate 20). Proteins were immobilized by amine coupling on flow channels of research grade CM5 chips (Biacore AB). Proteins were injected over a CM5 chip at a flow rate of 50 μl min^−1, and at the end of each protein injection (180 s), HBS-EP buffer (50 μl min^−1) was flowed over the chip to monitor dissociation for 180 s. The chip surface was then regenerated by injecting 50 μl of 2.0 M NaCl in 10 mM sodium acetate, pH 4.5. To control for nonspecific binding in experiments where Klotho ectodomain was immobilized on the chip, β-glucuronidase was coupled to the control flow channel of the chip (˜26-32 fmole/mm^2). […] The data were processed with BiaEvaluation software (Biacore AB). For each protein injection over a Klotho chip, the nonspecific responses from the β-glucuronidase control flow channel were subtracted from the responses recorded for the Klotho flow channel. Similarly, for each protein injection over a FGF chip, the nonspecific responses from the FHF1B control flow channel were subtracted from the responses recorded for the FGF flow channel. […]

binding of Klotho ectodomain to immobilized FGF23: bound poorly
B1: FGF23^28-251: human FGF23 (A28 to I251), bioactive full-length ligand expressed in E. coli (protein, listed as Homo sapiens)
chain: ASPLLGSSWGGLIHLYTATARNSYHLQIHKNGHVDGAPHQTIYSALMIRSEDAGFVVITGVMSRRYLCMDFRGNIFGSHYFDPENCRFQHQTLENGYDVYHSPQYHFLVSLGRAKRAFLPGMNPPPYSQFLSRRNEIPLIHFNTPIPRRHTRSAEDDSERDPLNVLKPRARMTPAPASCSQELPSAEDNSPMASDPLGVVRGGRVNTHAGGTGPEGCRPFAKFI
